Here are results for 1 molecule from patent US20230357420A1 (VILLARIS THERAPEUTICS, published 2023).

Test [1] deals with T1, Rhesus CD122 His tag (rhesus monkey, UniProt Q38J85 27-240 (cynomolgus entry)).
T1 construct: also called rhCD122; cynomolgus and/or rhesus monkey CD122 His tag; not shown: His tag
T1 sequence: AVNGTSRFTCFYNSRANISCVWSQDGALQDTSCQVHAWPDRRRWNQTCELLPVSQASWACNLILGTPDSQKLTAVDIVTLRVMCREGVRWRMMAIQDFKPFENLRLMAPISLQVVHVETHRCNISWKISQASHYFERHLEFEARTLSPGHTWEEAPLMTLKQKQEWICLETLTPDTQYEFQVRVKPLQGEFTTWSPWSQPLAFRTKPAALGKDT
The test is described as follows: Biacore SPR, Fab, 1:1 binding.

The target in a further test is T2, Human CILP2 protein (human, UniProt Q8IUL8 21-1156, limits assumed).
T2 construct: also called cartilage intermediate layer protein 2
T2 sequence (looked up): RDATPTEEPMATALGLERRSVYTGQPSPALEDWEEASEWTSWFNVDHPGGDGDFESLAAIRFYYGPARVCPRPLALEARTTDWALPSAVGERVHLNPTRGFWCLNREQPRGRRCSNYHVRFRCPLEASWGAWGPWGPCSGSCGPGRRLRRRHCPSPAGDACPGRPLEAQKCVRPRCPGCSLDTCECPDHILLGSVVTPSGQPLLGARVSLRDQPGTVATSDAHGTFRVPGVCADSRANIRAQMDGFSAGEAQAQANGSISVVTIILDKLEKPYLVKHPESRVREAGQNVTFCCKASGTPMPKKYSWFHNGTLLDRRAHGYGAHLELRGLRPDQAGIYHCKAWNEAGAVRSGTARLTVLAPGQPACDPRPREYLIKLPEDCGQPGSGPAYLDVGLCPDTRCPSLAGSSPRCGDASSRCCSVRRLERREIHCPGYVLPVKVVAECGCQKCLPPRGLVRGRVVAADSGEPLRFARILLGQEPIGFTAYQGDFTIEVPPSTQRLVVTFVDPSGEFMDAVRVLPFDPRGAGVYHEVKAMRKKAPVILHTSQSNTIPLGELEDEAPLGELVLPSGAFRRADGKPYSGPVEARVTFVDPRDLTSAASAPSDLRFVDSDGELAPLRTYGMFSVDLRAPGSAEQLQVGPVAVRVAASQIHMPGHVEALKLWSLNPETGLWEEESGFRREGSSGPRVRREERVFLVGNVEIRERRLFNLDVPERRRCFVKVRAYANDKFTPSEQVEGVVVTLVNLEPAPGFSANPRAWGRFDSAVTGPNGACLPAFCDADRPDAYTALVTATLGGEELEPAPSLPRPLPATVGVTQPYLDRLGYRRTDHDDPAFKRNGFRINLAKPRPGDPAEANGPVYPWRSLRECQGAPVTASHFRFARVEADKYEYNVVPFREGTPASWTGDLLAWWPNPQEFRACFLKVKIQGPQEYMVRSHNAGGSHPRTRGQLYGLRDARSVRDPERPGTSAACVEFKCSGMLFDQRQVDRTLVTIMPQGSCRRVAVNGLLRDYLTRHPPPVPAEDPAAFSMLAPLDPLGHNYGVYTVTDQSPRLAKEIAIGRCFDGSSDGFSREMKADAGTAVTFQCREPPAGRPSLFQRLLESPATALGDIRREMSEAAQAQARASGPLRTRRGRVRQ
The test is described as follows: BIACORE SPR, Fab at 62.5, 125, 250, 500 and 1000 nM on human CILP2 protein; Rmax.

Test [2] deals with T3, Human CD122 His tagged (human, UniProt P14784 27-240).
T3 construct: also called hCD122; monomeric antigen; not shown: His tag
T3 sequence: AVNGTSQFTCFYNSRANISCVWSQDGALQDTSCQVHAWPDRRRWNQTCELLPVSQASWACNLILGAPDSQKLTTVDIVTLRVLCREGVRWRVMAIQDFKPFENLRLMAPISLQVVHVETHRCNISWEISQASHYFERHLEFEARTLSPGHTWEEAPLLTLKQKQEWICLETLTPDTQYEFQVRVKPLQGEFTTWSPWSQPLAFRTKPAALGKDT
The test is described as follows: Biacore SPR, Fab, 1:1 binding.

Test [3] concerns the target T3, Human CD122 His tagged. The test is described as follows: Biacore, Fab affinity and kinetics on hCD122. (Surface plasmon resonance follows binding to a sensor surface in real time, without labels.)
A further test addresses T4, Human neudesin protein (human, UniProt Q9UMX5 32-172).
T4 construct: also called NENF
Briefly: BIACORE SPR, Fab at 62.5, 125, 250, 500 and 1000 nM on human neudesin protein; Rmax.

Test [4] concerns the target T3, Human CD122 His tagged. Briefly: Biacore SPR, Fab.
For test [5], the target named is T1, Rhesus CD122 His tag. Briefly: Biacore SPR, Fab.

T4 sequence (Q9UMX5 32-172 limits assumed): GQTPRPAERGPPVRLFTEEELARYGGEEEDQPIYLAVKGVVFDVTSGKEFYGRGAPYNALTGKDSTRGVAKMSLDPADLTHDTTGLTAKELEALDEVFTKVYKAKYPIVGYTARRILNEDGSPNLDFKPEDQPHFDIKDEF

B1: VillFab-1 (Fab, V domains shown)
VH: EVQLLESGGGLVQPGGSLRLSCAASGFSVTSYGVHWIRQAPGKGLEWLGVIWSGGSTDYNAAFISRLTISKDNSKNTVYFQMNSLQAEDTAIYYCARAGDYNYDGFAYWGQGTLVTVSS
VL: DIVLTQSPSSLSASVGDRVTITCSGSSSVSFMYWYQQRPGKAPRLLIYDTSNLASGVPSRFSGSGSGTSYTFTISSLQPEDIATYYCQQWSTYPLTFGQGTKVEVK
notes: also called Villmab-1 in human Fab format
As to B1, the Kd worked out at 12 nM with Rhesus CD122 His tag [1]; 16.5 nM in the test with Human CD122 His tagged [2]; 12.4 nM in the test with Human CD122 His tagged [3]; 12.4 nM in the test with Human CD122 His tagged [4]; 10.2 nM with Rhesus CD122 His tag [5]. Also, the koff with Rhesus CD122 His tag [1] was determined as 0.00279 s⁻¹; with Human CD122 His tagged [2], 0.00372 s⁻¹; in the test with Human CD122 His tagged [3], 0.0034 s⁻¹. Also, the kon with Rhesus CD122 His tag [1] turned out to be 233000 M⁻¹ s⁻¹; in the test with Human CD122 His tagged [2], 226000 M⁻¹ s⁻¹; with Human CD122 His tagged [3], 270000 M⁻¹ s⁻¹. Further, the binding result with Human CILP2 protein and with Human neudesin protein was “no binding (tested: 1000 nM)” in each case.

As usually defined, the Kd is the free concentration of one partner at which half of the binding sites on the other are occupied at equilibrium, for simple one-to-one binding. A lower Kd goes with tighter binding. By koff is commonly meant a measure of how fast the partners let go of each other. A high value points to fast dissociation. A word on the kon: it is the second-order rate constant of association.
